In patent US20200199225A1 (AVA LIFESCIENCE, published 2020):

Biological target: T1, CLL subset 2 typical BCR (HC/LC typical for the CLL subset 2) expressed on the surface of TKO cells
T1 construct: also called CLL-Subset2 BCR; BCR of Interest
Experiment: FACS on TKO cells expressing the CLL receptor
Excerpt: Monoclonal antibodies were produced using the standard procedure in mice and the subsequent generation of hybridoma cells. The screening for positive clones was not performed by ELISA as usual. Since the target structure is a membrane-bound receptor, it is of central importance to validate the binding of the potential antibodies in a cellular system, i.e. while largely preserving the cell physiological states native to this cell type. First, groups of pooled supernatants were examined for binding events using FACS analysis. For this purpose different CLL-Subset 2 BCR variants were expressed on the surface of a cell line (TKO), which cannot express BCR itself. […] Subsequently, the supernatants of the individual hybridoma clones were examined in more detail with regard to their binding in order to identify highly specific clones with a high affinity.
For the screening procedure, different vectors were used in the previous transformation for the following heavy chain (HC) and light chain (LC) combinations of the corresponding CLL-BCRs, these combinations being used on the surface of the BCR reconstitution system: [0074] Control (transformation vector without BCR) (see FIG. 1 A) [0075] Vector with HC/LC typical for the CLL subset 2 (see FIG. 1 B) [0076] Vector with a non-CLL subset 2 HC/a LC typical for the CLL subset 2 (without target motif; epitope) (see FIG. 1 C) [0077] […]

T1 sequence (heavy, as listed by the source, chain 1 of 2): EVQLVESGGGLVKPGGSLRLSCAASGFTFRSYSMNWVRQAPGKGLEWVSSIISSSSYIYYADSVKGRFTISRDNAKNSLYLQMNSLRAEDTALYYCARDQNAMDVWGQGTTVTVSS
T1 sequence (light, as listed by the source, chain 2 of 2): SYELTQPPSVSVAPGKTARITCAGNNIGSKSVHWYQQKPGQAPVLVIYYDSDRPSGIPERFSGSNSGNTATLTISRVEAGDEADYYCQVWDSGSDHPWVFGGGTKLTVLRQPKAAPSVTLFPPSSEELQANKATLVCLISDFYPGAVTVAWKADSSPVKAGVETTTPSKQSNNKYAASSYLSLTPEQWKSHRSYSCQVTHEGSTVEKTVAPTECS

binding result: binds
B1: AVA-mAb01 (antibody, V domains shown)
VH: QVQLQQSGPGLVQPSQSLSITCTVSGFSLTSYGIHWVRQSPGKGLEWLGVIWRGGGTDSNAAFMSRLSITKDNSKSQVFFKMNSLQADDTAIYYCARSRYDEEESMNYWGQGTSVTVSS
VL: QIVLTQSPASLSASVGETVTITCRASGNIHSYLAWYQQKQGKSPQLLVYNAKTLADGVPSRFSGSGSGTQYSLKINSLQPEDFGSYYCQHFWNTPPTFGAGTKLELK
notes: Murine monoclonal antibody from a hybridoma, tested as hybridoma supernatant and detected with a fluorescence-labeled anti-mouse-IgG antibody; the constant regions are not; also called specific monoclonal antibody against Subset-2; the selected antibody
